Results taken from publication PMC7078210.
Changes are numbered by the printed parent chain.

T1: NtMOC1 Y180A (Nicotiana tabacum, UniProt A0A1S4BMC2 108-275, Y180A)
T1 sequence: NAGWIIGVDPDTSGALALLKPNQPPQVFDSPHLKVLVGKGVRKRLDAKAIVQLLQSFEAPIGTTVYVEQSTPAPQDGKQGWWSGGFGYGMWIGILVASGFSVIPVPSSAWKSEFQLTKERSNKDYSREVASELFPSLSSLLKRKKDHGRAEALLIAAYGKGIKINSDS

T2: NtMOC1 D116A (Nicotiana tabacum, UniProt A0A1S4BMC2 108-275, D116A)
T2 sequence: T1 sequence with D9A, A73Y

T3: NtMOC1 D118A (Nicotiana tabacum, UniProt A0A1S4BMC2 108-275, D118A)
T3 sequence: T1 sequence with D11A, A73Y

T4: NtMOC1 E258A (Nicotiana tabacum, UniProt A0A1S4BMC2 108-275, E258A)
T4 sequence: T1 sequence with A73Y, E151A

T5: NtMOC1 D253A (Nicotiana tabacum, UniProt A0A1S4BMC2 108-275, D253A)
T5 sequence: T1 sequence with A73Y, D146A

T6: NtMOC1 E175A (Nicotiana tabacum, UniProt A0A1S4BMC2 108-275, E175A)
T6 sequence: T1 sequence with E68A, A73Y

B1: X2 (CCGG) HJ (structured_DNA)
DNA 1: GGGCAAAGATGTCCCTCTGTTGTAATCG
DNA 2: CCAGTGCCTTGCTGGGACATCTTTGCCC
DNA 3: TAGACAGCTCCATCCAGCAAGGCACTGG
DNA 4: CGATTACAACAGAGGATGGAGCTGTCTA

How the values were obtained:
[1] = biological target: NtMOC1 (N108-S275, I112V/Q162K/E235Q/E239Q) (Nicotiana tabacum); assay: crystal structure; MOC1 with 1 mM MgCl2 mixed with Holliday junction DNA (9-bp arms) at a molar ratio of 1:1.2, co-crystallised
[2] = biological target: NtMOC1 (N108-S275, I112V/Q162K/E235Q/E239Q) (Nicotiana tabacum); assay: crystal structure; HJ-free (apo) MOC1, 10 mg/ml with 1 mM MgCl2, sitting-drop vapor diffusion at 18 °C
NtMOC1 Y180A = biological target: T1, NtMOC1 Y180A; assay: EMSA; 5 mM EDTA; little effect; EMSA: 50 mM Tris-HCl pH 8.0, 1 mM DTT, 5 mM EDTA, 200 ng/ml heparin (so in the source), 10% glycerol, 25 C, 30 min; HJ 250 nM, protein 0-1000 nM; 6% native PAGE, no MgCl2; details: protein: recombinant; tags: 6xHis N-term, removed (DrICE); chain copies: 2; label: none (GelRed stain); four-way junction of 4 strands, 28 nt each, 2-bp homologous core
NtMOC1 D116A = biological target: T2, NtMOC1 D116A; assay: EMSA; 5 mM EDTA; EMSA: 50 mM Tris-HCl pH 8.0, 1 mM DTT, 5 mM EDTA, 200 ng/ml heparin (so in the source), 10% glycerol, 25 C, 30 min; HJ 250 nM, protein 0-1000 nM; 6% native PAGE, no MgCl2; details: protein: recombinant; tags: 6xHis N-term, removed (DrICE); chain copies: 2; label: none (GelRed stain); four-way junction of 4 strands, 28 nt each, 2-bp homologous core
NtMOC1 D118A = biological target: T3, NtMOC1 D118A; assay: as above; details: protein: recombinant; tags: 6xHis N-term, removed (DrICE); chain copies: 2; label: none (GelRed stain); four-way junction of 4 strands, 28 nt each, 2-bp homologous core
NtMOC1 E258A = biological target: T4, NtMOC1 E258A; assay: as above; details: protein: recombinant; tags: 6xHis N-term, removed (DrICE); chain copies: 2; label: none (GelRed stain); four-way junction of 4 strands, 28 nt each, 2-bp homologous core
NtMOC1 D253A = biological target: T5, NtMOC1 D253A; assay: as above; details: protein: recombinant; tags: 6xHis N-term, removed (DrICE); chain copies: 2; label: none (GelRed stain); four-way junction of 4 strands, 28 nt each, 2-bp homologous core
NtMOC1 E175A = biological target: T6, NtMOC1 E175A; assay: as above; details: protein: recombinant; tags: 6xHis N-term, removed (DrICE); chain copies: 2; label: none (GelRed stain); four-way junction of 4 strands, 28 nt each, 2-bp homologous core

Molecule	stoichiometry N [1]	stoichiometry N [2]	binding result (NtMOC1 Y180A)	binding result (NtMOC1 D116A)	binding result (NtMOC1 D118A)	binding result (NtMOC1 E258A)	binding result (NtMOC1 D253A)	binding result (NtMOC1 E175A)
NtMOC1 (N108-S275, I112V/Q162K/E235Q/E239Q) (domain or fragment)	2	2						
B1			binds	binds	binds	binds	binds	binds
